In article PMC9543038 (Chembiochem, 2022):
Where no end group is shown, it is not given here. [ ]: non-standard residue; d: D form. pT = C[C@@H](OP(=O)(O)O)[C@H](N)C(=O)O; FAM = fluorescein

T1: FAM‐ERα‐pTV peptide
T1 peptide: {FAM}-KYYITGEAEGFPA[pT]V


Tests used:
FAM‐ERα‐pTV peptide [1] = molecular target: T1, FAM‐ERα‐pTV peptide; assay: fluorescence polarisation
FAM‐ERα‐pTV peptide [2] = molecular target: T1, FAM‐ERα‐pTV peptide; assay: fluorescence polarisation
FAM‐ERα‐pTV peptide [3] = molecular target: T1, FAM‐ERα‐pTV peptide; assay: fluorescence polarisation
cross-linking = molecular target: the molecule itself; assay: cross-linking

| Binder | pEC50 (FAM‐ERα‐pTV peptide [1]) | pEC50 with FC-A (100 μM) (FAM‐ERα‐pTV peptide [2]) | pEC50 with fragment 2 (1 mM) (FAM‐ERα‐pTV peptide [3]) | stoichiometry N (cross-linking) |
| --- | --- | --- | --- | --- |
| recombinant N‐terminally GST‐tagged 14‐3‐3η (natural protein) MGDREQLLQRARLAEQAERYDDMASAMKAVTELNEPLSNEDRNLLSVAYKNVVGARRSSWRVISSIEQKTMADGNEKKLEKVKAYREKIEKELETVCNDVLSLLDKFLIKNCNDFQYESKVFYLKMKGDYYRYLAEVASGEKKNSVVEASEAAYKEAFEISKEQMQPTHPIRLGLALNFSVFYYEIQNAPEQACLLAKQAFDDAIAELDTLNEDSYKDSTLIMQLLRDNLTLWT | 5.13 | 6.16 | 5.92 | – |
| His‐14‐3‐3γ (natural protein, UniProt P61981 1-247, looked up) MVDREQLVQKARLAEQAERYDDMAAAMKNVTELNEPLSNEERNLLSVAYKNVVGARRSSWRVISSIEQKTSADGNEKKIEMVRAYREKIEKELEAVCQDVLSLLDNYLIKNCSETQYESKVFYLKMKGDYYRYLAEVATGEKRATVVESSEKAYSEAHEISKEHMQPTHPIRLGLALNYSVFYYEIQNAPEQACHLAKTAFDDAIAELDTLNEDSYKDSTLIMQLLRDNLTLWTSDQQDDDGGEGNN | – | – | – | 2 |
